Assay results: patent US20240383982A1 (Genmab, published 2024)

T1: human B7H4, full length, on cells (human, UniProt Q7Z7D3 25-282)
T1 construct: Uniprot Q7Z7D3; Used for transfected HEK cells and for the B7H4-expressing human tumor cell lines (endogenous B7H4); also called VTCN1
T1 sequence: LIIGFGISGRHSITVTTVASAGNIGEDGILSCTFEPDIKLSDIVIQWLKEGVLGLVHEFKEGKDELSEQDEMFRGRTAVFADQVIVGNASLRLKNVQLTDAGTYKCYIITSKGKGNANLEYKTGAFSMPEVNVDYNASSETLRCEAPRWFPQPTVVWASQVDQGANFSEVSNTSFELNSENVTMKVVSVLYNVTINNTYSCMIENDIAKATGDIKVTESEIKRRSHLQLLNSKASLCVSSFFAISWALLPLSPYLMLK

T2: B7H3
T2 construct: also called human B7H3
T2 full-length protein on cells: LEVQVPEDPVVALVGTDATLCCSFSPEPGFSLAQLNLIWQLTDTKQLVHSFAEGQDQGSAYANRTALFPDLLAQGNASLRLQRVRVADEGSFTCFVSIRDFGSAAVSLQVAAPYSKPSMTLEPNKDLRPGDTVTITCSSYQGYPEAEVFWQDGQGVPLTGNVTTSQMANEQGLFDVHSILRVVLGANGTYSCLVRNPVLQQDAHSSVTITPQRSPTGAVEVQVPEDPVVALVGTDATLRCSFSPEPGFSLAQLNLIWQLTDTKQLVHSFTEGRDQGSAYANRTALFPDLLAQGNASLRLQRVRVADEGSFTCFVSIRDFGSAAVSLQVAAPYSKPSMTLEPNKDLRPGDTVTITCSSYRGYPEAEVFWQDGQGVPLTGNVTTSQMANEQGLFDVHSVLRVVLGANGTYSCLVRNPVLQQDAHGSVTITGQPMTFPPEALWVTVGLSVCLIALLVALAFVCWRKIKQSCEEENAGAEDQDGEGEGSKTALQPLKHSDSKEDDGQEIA

T3: B7H4-IgV/B7H3-IgC
T3 construct: also called chimeric molecule with the IgV domain of B7H4 and the IgC domain of B7H3
T3 full-length chimeric protein on cells: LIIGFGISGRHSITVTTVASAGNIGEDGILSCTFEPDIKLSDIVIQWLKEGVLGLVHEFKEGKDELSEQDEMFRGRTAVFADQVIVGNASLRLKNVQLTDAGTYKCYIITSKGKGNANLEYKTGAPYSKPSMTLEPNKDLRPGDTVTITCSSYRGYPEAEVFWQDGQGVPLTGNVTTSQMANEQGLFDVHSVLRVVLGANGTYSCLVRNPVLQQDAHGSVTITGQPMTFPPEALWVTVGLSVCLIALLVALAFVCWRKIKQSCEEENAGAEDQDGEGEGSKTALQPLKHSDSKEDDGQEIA

T4: recombinant hIgG1 Fc-tagged cynomolgus monkey B7H4 (Creative BioMart, cat. no. VTCN1-1517R) (cynomolgus monkey, UniProt Q7Z7D3 25-259 (human entry))
T4 construct: Bought protein; also called cynomolgus monkey B7H4 extracellular domain
T4 sequence: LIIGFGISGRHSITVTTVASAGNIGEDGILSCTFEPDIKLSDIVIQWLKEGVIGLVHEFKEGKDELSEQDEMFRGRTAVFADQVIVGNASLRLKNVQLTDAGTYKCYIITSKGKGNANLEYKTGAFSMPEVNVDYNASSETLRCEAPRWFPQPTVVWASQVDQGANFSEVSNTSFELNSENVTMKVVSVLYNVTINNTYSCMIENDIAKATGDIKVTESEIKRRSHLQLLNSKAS


Assays:
[1] = molecular target: T1, human B7H4, full length, on cells; assay: binding to tumor cells, as CD3 bispecific (monovalent) and IgG1 (bivalent)
B7H3 = molecular target: T2, B7H3; assay: flow cytometry, transiently transfected HEK cells, MFI as % of IgG1-B7H3-BRCA84D
Description: (§1) Expression constructs were prepared encoding human B7H4, human B7H3 (Uniprot accession no. Q5ZPR3-1; SEQ ID NO: 9), or a chimeric molecule containing the IgV domain of B7H3 and the IgC domain of B7H4 (B7H3-IgV/B7H4-IgC; SEQ ID NO: 11), or a chimeric molecule containing the IgV domain of B7H4 and the IgC domain of B7H3 (B7H4-IgV/B7H3-IgC; SEQ ID NO: 10). HEK cells were transiently transfected to express these constructs.
(§2) Cells (3×10⁴ cell/well) were incubated in polystyrene 96-well round-bottom plates (Greiner bio-one, cat. no. 650101) with serial dilutions of antibodies (range 0.0046 to 10 μg/mL in 3-fold dilution steps) in 50 μL PBS/0.1% BSA/0.02% azide (FACS buffer) at 4° C. for 30 min. After washing twice in FACS buffer, cells were incubated with secondary antibody at 4° C. for 30 min. As a secondary antibody, R-Phycoerythrin (PE)-conjugated goat-anti-human IgG F(ab′)₂ (1:500 in staining buffer; Jackson ImmunoResearch Laboratories, Inc., West Grove, PA, cat. no. 109-116-098) was used. Next, cells were washed twice in FACS buffer, re-suspended in 20 μL FACS buffer and analyzed on an iQue Screener (Intellicyt Corporation, USA).

B7H4-IgV/B7H3-IgC [2] = molecular target: T3, B7H4-IgV/B7H3-IgC; assay: flow cytometry, transiently transfected HEK cells, antibody at 10 µg/mL, MFI as % of the control antibody of the panel [continued) III]
Description: as §1, §2

[3] = molecular target: T4, recombinant hIgG1 Fc-tagged cynomolgus …; assay: BLI (Octet HTX); Fc-tagged cynomolgus B7H4 coupled to AR2G sensor, bispecific antibody in solution (monovalent B7H4 binding); 1st experiment
Description: In addition, the affinity of for cynomolgus monkey B7H4 was determined by BLI. […] Amine Reactive 2nd Generation (AR2G) biosensors (FortéBio, cat. no. 18-5092) were activated by reaction with 20 mM EDC (N-(3-Dimethylaminopropyl)-N′-ethylcarbodiimide hydrochloride) (FortéBio, cat. no. 18-1033) and 10 mM s-NHS (N-hydroxysulfosuccinimide sodium salt) (FortéBio, cat. no. 18-1067) for 300 s. The activated sensors were loaded with 10 μg/mL recombinant hIgG1 Fc-tagged cynomolgus monkey B7H4 (Creative BioMart, cat. no. VTCN1-1517R) in 10 mM Sodium Acetate pH 4.0 (FortéBio, cat. no. 18-1068) for 600 s and quenched with 1 M ethanolamine pH 8.5 (FortéBio, cat. no. 18-1071) for 300 s. […] A molecular mass of 150 kDa of the antibodies was used for calculations. For each antibody a reference sensor was used, which was incubated with Sample Diluent instead of antibody.
Data were acquired using Data Acquisition Software v9.0.0.49d (FortéBio) and analyzed with Data Analysis Software v9.0.0.12 (FortéBio). Data traces were corrected per antibody by subtraction of the reference sensor. The Y-axis was aligned to the last 10 s of the baseline, Interstep Correction alignment to dissociation and Savitzky-Golay filtering were applied. Data traces with a response<0.05 nm were excluded from analysis. The data was fitted with the 1:1 Global Full fit model using a window of interest for the association and dissociation times set at 100 s and 200 s respectively.

[4] = molecular target: T1, human B7H4, full length, on cells; assay: cell-based or functional assay
B7H4-IgV/B7H3-IgC [5] = molecular target: T3, B7H4-IgV/B7H3-IgC; assay: flow cytometry, transiently transfected HEK cells, MFI as % of the control antibody of the panel [continued) III]
Description: as §1, §2

[6] = molecular target: T1, human B7H4, full length, on cells; assay: flow cytometry on SK-BR3 tumor cells [panel SK-BR3 cells]
Description: Cells (3×10⁴ cells/well) were incubated in polystyrene 96-well round-bottom plates (Greiner bio-one, cat. no. 650180) with serial dilutions of antibodies (ranging from 0.000458 to 30 μg/mL in 4-fold dilution steps) in 100 μL PBS/0.1% BSA/0.02% azide (staining buffer) at 4° C. for 30 min. Experiments were performed in technical duplicate. After washing twice in staining buffer, cells were incubated in 50 μL secondary antibody at 4° C. for 30 min. As a secondary antibody, R-Phycoerythrin (PE)-conjugated goat-anti-human IgG F(ab′)₂ (1:500 in FACS buffer; Jackson ImmunoResearch Laboratories, Inc., West Grove, PA, cat. no. 109-116-098), was used. Cells were washed twice in staining buffer, re-suspended in 30 μL FACS buffer containing Topro-3 (1:10,000 dilution) and analyzed on an iQue Screener (Intellicyt Corporation, USA). Binding curves were analyzed using non-linear regression (sigmoidal dose-response with variable slope) using GraphPad Prism V7.02 software (GraphPad Software, San Diego, CA, USA).
Binding was analyzed by flow cytometry as described above.

Binder	binding result [1]	binding result (B7H3)	binding result (B7H4-IgV/B7H3-IgC [2])	Kd [3] [nM]	koff [3] [s⁻¹]	kon [3] [M⁻¹ s⁻¹]	IC50 of T cell-mediated cytotoxicity, HCC1954 cells, highest of 4 donors [4] [ng/mL]	IC50 of T cell-mediated cytotoxicity, HCC1954 cells, lowest of 4 donors [4] [ng/mL]	IC50 of T cell-mediated cytotoxicity, MCF7 cells, highest of 4 donors [4] [ng/mL]	IC50 of T cell-mediated cytotoxicity, MCF7 cells, lowest of 4 donors [4] [ng/mL]	IC50 of T cell-mediated cytotoxicity, MDA-MB-468 cells, highest of 4 donors [4] [ng/mL]	IC50 of T cell-mediated cytotoxicity, MDA-MB-468 cells, lowest of 4 donors [4] [ng/mL]	IC50 of T cell-mediated cytotoxicity, OVCAR3 cells, highest of 4 donors [4] [ng/mL]	IC50 of T cell-mediated cytotoxicity, OVCAR3 cells, lowest of 4 donors [4] [ng/mL]	IC50 of T cell-mediated cytotoxicity, SK-BR3 cells, highest of 4 donors [4] [ng/mL]	IC50 of T cell-mediated cytotoxicity, SK-BR3 cells, lowest of 4 donors [4] [ng/mL]	binding result (B7H4-IgV/B7H3-IgC [5])	EC50 (read off the curve) [6] [ng/mL]
antibody B7H4-C1 (antibody, V domains shown, Parent of B7H4-C1-N52S) VH: QVQLQQWGAGLLKPSETLSLTCAVYGGSFSGYYWSWIRQPPGKGLEWIGEINHSGSTNYNPSLKSRVTISIDTSKNQFSLKLTSVTAADTAVFYCARGLFNWNFDSWGQGTLVTVSS VL: DIQMTQSPSSLSASVGDRVTITCRASQGIRNDLGWYQQKPGKAPKRLIYGASSLQSGVPSRFSGSGSGTEFTLTISSLQPEDFATYYCLQHNSYPRTFGQGTTVEIKR	binds	–	–	–	–	–	–	–	–	–	–	–	–	–	–	–	–	–
bsIgG1-huCD3-FEALxB7H4-C2-FEAR (bispecific antibody, also called bslgG1-huCD3-FEALxB7H4-C2-FEAR) heavy 1: not shown light 1: not shown heavy 2: EVQLVQSGAEVKKPGASVKVSCKASGYTFTSYWIGWVRQAPGQGLEWIGDIYPGGGYTNYNEKFKGRVTITRDTSTSTAYLELSSLRSEDTAVYYCARLDGSSYRGAMDSWGQGTLVTVSSASTKGPSVFPLAPSSKSTSGGTAALGCLVKDYFPEPVTVSWNSGALTSGVHTFPAVLQSSGLYSLSSVVTVPSSSLGTQTYICNVNHKPSNTKVDKRVEPKSCDKTHTCPPCPAPEFEGGPSVFLFPPKPKDTLMISRTPEVTCVVVAVSHEDPEVKFNWYVDGVEVHNAKTKPREEQYNSTYRVVSVLTVLHQDWLNGKEYKCKVSNKALPAPIEKTISKAKGQPREPQVYTLPPSREEMTKNQVSLTCLVKGFYPSDIAVEWESNGQPENNYKTTPPVLDSDGSFFLYSRLTVDKSRWQQGNVFSCSVMHEALHNHYTQKSLSLSPGK light 2: DIQMTQSPSSLSASVGDRVTITCKASQGFNKYVAWYQQKPGKAPKLLIYYTSTLQPGVPSRFSGSGSGRDYTLTISSLQPEDFATYYCLQYGNLLYAFGQGTKVEIKRTVAAPSVFIFPPSDEQLKSGTASVVCLLNNFYPREAKVQWKVDNALQSGNSQESVTEQDSKDSTYSLSSTLTLSKADYEKHKVYACEVTHQGLSSPVTKSFNRGEC	–	no binding (tested: 10 µg/mL)	binds	–	–	–	–	–	–	–	–	–	–	–	–	–	–	–
bsIgG1-huCD3-FEALxB7H4-C1-N52S-FEAR (bispecific antibody, also called bslgG1-huCD3-FEALxB7H4-C1-N52S-FEAR; CD3xB7H4) heavy 1: not shown light 1: not shown heavy 2: QVQLQQWGAGLLKPSETLSLTCAVYGGSFSGYYWSWIRQPPGKGLEWIGEISHSGSTNYNPSLKSRVTISIDTSKNQFSLKLTSVTAADTAVFYCARGLFNWNFDSWGQGTLVTVSSASTKGPSVFPLAPSSKSTSGGTAALGCLVKDYFPEPVTVSWNSGALTSGVHTFPAVLQSSGLYSLSSVVTVPSSSLGTQTYICNVNHKPSNTKVDKRVEPKSCDKTHTCPPCPAPEFEGGPSVFLFPPKPKDTLMISRTPEVTCVVVAVSHEDPEVKFNWYVDGVEVHNAKTKPREEQYNSTYRVVSVLTVLHQDWLNGKEYKCKVSNKALPAPIEKTISKAKGQPREPQVYTLPPSREEMTKNQVSLTCLVKGFYPSDIAVEWESNGQPENNYKTTPPVLDSDGSFFLYSRLTVDKSRWQQGNVFSCSVMHEALHNHYTQKSLSLSPGK light 2: DIQMTQSPSSLSASVGDRVTITCRASQGIRNDLGWYQQKPGKAPKRLIYGASSLQSGVPSRFSGSGSGTEFTLTISSLQPEDFATYYCLQHNSYPRTFGQGTTVEIKRTVAAPSVFIFPPSDEQLKSGTASVVCLLNNFYPREAKVQWKVDNALQSGNSQESVTEQDSKDSTYSLSSTLTLSKADYEKHKVYACEVTHQGLSSPVTKSFNRGEC	–	no binding (tested: 10 µg/mL)	–	21	0.003	140000	8	1	25	12	4	1	12	3	16	2	no binding (tested: 10 µg/mL)	~1000
